From doi:10.1101/2024.10.15.618391
Values joined by “and” are separate entries in the source; they are usually repeats but may differ in a detail not shown here. Equal values may be shown once. Read-outs that look alike come from different tables or passages of the source.

Columns and labels:
Experiment in all cases: BLI
[1] = molecular target: His6-SeSepF (Spiroplasma eriocheiris SepF) (Spiroplasma eriocheiris)
[2] = molecular target: His6-SeSepF (Spiroplasma eriocheiris SepF) (Spiroplasma eriocheiris); remark: listed apart in the source
[3] = molecular target: His6-SeSepF (Spiroplasma eriocheiris SepF) (Spiroplasma eriocheiris); remark: listed apart in the source

Row | Substance | Kd [1] | Kd [2] | Kd [3]
1 | SeFtsZ L272E mutant (from UniProt A0A0H3XMR3 1-411) (natural protein) | 0.98 µM and 0.7 µM |  | 
2 | Spiroplasma eriocheiris FtsZ, His-tag removed (from UniProt A0A0H3XMR3 1-411) (natural protein) | 1.13 µM | 1.04 µM | 53.9 µM
